Laboratory results as given in PMC4963197, “Phosphorylation acts positively and negatively to regulate MRTF-A subcellular localisation and activity” (eLife, 2016).
Values belong to the molecule of their own block, whether it stands above or below them.

Columns and labels:
Crm1 = experiment: GST pulldown of recombinant Crm1; assay type: binding; settings: Ran 1–180 Q69L, 3 hr at 4°C
Experimental: For GST pulldown assays, glutathione-sepharose was saturated with GST-fusion proteins, washed in binding buffer (50 mM Tris-HCl pH 7.5, 100 mM NaCl, 10 mM MgCl2, 0.05% NP-40), and incubated with purified recombinant Crm1, Ran(1–180) Q69L or ERK2 for 3 hr at 4°C. After four washes with binding buffer, proteins were eluted in SDS loading buffer for analysis. For kinase assays, glutathione-Sepharose was saturated with GST-MRTF 2–199, washed in binding buffer, and incubated with purified recombinant ERK2 and actin in binding buffer with 250 μM ATP and 10 mg/ml BSA, at 30°C. The reaction was stopped by addition of SDS loading buffer.

G-actin = target: T1, G-actin (Oryctolagus cuniculus, UniProt P68135); experiment: Size exclusion chromatography of G-actin / MRTF-A(67–199) complexes; assay type: binding; settings: SEC, recombinant MRTF-A(67–199)
T1 construct: Actin was prepared as described ([Mouilleron et al., 2008]); from tissue; host or cells: rabbit skeletal muscle (own knowledge of the cited method)
Experimental: GST-fusions were expressed in E. coli Rosetta (DE3) pLysS (Novagen). Lysis was in 50 mM Tris-HCl pH 7.5, 300 mM NaCl, 1% TX-100, 5 mM DTT, 10 mM EDTA pH 8, 1 mM PMSF, 15 μg/mL Benzamidine, followed by passage through a French press. Following adsorption onto glutathione-Sepharose, proteins were recovered by cleavage with GST-3C protease at 4°C overnight in 50 mM Tris-HCl (pH 7.5), 100 mM NaCl, 1 mM DTT. Crm1 and Ran(1–180) Q69L were purified as described ([Güttler et al., 2010]).
Preparation of LatB-actin and fluorescence polarisation anisotropy assay were described ([Guettler et al., 2008]). Size exclusion chromatography was on Superdex 200 column equilibrated in 20 mM Tris (pH 8), 100 mM NaCl, 3 mM MgCl2, 0.2 mM EGTA, 0.3 mM TCEP [(tris(2-carboxyethyl)phosphine)], 5% (v/v) glycerol, calibrated with globular proteins of known molecular weight.

B1: MRTF residues 2–67: MRTF-A N-terminal residues 2–67 containing NES1 (protein, UniProt Q8K4J6 2-67, looked up, fragment)
chain: TLLEPEMLMMAVQSVLQLKLQQRRTREELVSQGIMPPLKSPAAFHEQRRSLERARTEDYLKRKIRS
- recovery of recombinant Crm1 (Crm1): could recover recombinant Crm1 from solution in a pulldown assay

- apparent molecular mass of G-actin complex (G-actin; Superdex 200, 20 mM Tris (pH 8), 100 mM NaCl, 3 mM MgCl2, 0.2 mM EGTA, 0.3 mM TCEP, 5% glycerol): 139.8 kDa
- apparent stoichiometry of G-actin binding (G-actin; Superdex 200, pH 8, calibrated with globular proteins): 3.0 actins
B2: MRTF-A(67–199) WT: recombinant MRTF-A(67–199), intact RPEL domain (protein, UniProt Q8K4J6 67-199, looked up, fragment)
chain: SRPERAELVRMHILEETSAEPSLQAKQLKLKRARLADDLNEKIAQRPGPMELVEKNILPVESSLKEAIIVGQVNYPKVADSSSFDEDSSDALSPEQPASHESQGSVPSPLESRVSDPLPSATSISPTQVLSQL
